This series is classed as in vitro ADME. The protocol: In order to simulate the effect of digestion and oligonucleotide uptake without human trials and without harming endangered species, in vitro gastro-intestinal digestion experiments were performed. […] In short, oral, gastric and intestinal passage were simulated by emulating their respective chemical and enzymatic compositions.
The integrity of the oligonucleotides after in vitro digestion was determined through realtime PCR. Quantification of full length genes was performed using the Applied
Biosystems 7500 (Thermo Fisher Scientific Inc.) with the gScript™ One-Step SYBR® Green qRT-PCR Kit, ROX™ (QuantaBio Inc.) and oligonucleotide primers (Prim_SEQ1 for [ATGCCCTTGTCCAGTC], Prim_SEQ1 rev[CTAGAAAGCACAGCTG]) annealing (53° C.) at the ends of the full length gene. […] In order to simulate the in vitro passage of a traditional extract, a piece of dried beef meat (“beef jerky”, Bos taurus) was used and oligonucleotides for the corresponding growth factor 1 (GenBank: V00111.1) derived (for [acggctcagg gtccgtgaca], rev [ctaataaaat gaggaaattg]). Dried beef samples were rinsed in deionized, sterile water for 14 hours at 21° C. followed by an incubation with proteinase K (400 ng/mL, P2308 Sigma-Aldrich, USA) and guanidine hydrochloride (5 mol/L, CAS Number: 50-01-1) in 1 mL volume for 12 h at 55° C. […]

B1: SEQ ID NO: 1: growth hormone 1 (GH1) of Panthera tigris altaica (tiger) (nucleic acid)
DNA: ATGCCCTTGTCCAGTCTGTTTGCCAACGCCGTGCTCCGGGCCCAGCACCTGCACCAGCTGGCCGCCGACACCTACAAAGAGTTTGAGCGGGCGTACATCCCGGAGGGACAGAGGTATTCCATCCAGAACGCGCAGGCTGCCTTCTGCTTCTCGGAGACCATCCCGGCCCCCACGGGCAAGGACGAGGCCCAGCAGAGATCCGTGAGTGGCCAGGGGCGCCCGGCCAAGGATCAGGGGCCTCCCTCGTCTGCAGGAGTCAGGCCCTGGGCAGCCTTCTCCCTGGGGCCGAGGGTGTGCAGGGAGGCAGACTGGGCCTCTCCGTCCCTCTTCCCCTTTTTGCAGGAGCTGGAAGATGGCAGCCCCCGGGCCGGGCAGATCCTGAAGCAAACCTACGACAAGTTTGACACAAACTTGCGCAGTGACGACGCGCTGCTCAAGAACTATGGGCTCCTGTCCTGCTTCAAGAAGGACCTGCACAAGGCTGAGACGTACCTGCGGGTCATGAAGTGTCGCCGCTTCGTGGAAAGCAGCTGTGCTTTCTAG
modifications: Panthera tigris altaica
As to B1, the “detection of full length gene oligonucleotide by realtime PCR” value is recorded as “easily detectable amounts”. For the same molecule, the “crossing point (CP) of full length oligonucleotide in realtime PCR” value (after passing through the in vitro digestion assay, 1 million oligonucleotide molecules or more, of 40 cycles) is 23 cycles.

The values are drawn from patent US20200230166A1, “Oligonucleotides in food, beverage, cosmetic and medicinal formulations” (DNA Essence GmbH, priority 2015, published 2020).
